Molecular target: human high affinity receptor for IL2 (IL2R) (human) (UniProt P01589)
Experiment: cell-based or functional assay

UniProt P01589, sequence (P01589 22-272, chain 1 of 3): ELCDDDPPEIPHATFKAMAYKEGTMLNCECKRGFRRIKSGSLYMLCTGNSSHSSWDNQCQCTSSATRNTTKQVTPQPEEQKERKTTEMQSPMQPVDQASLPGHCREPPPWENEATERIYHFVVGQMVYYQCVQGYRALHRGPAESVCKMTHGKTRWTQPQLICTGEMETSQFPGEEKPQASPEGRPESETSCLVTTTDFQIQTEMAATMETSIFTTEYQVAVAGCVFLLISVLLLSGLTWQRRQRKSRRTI
UniProt P01589, sequence (P14784 27-551, chain 2 of 3, further chain): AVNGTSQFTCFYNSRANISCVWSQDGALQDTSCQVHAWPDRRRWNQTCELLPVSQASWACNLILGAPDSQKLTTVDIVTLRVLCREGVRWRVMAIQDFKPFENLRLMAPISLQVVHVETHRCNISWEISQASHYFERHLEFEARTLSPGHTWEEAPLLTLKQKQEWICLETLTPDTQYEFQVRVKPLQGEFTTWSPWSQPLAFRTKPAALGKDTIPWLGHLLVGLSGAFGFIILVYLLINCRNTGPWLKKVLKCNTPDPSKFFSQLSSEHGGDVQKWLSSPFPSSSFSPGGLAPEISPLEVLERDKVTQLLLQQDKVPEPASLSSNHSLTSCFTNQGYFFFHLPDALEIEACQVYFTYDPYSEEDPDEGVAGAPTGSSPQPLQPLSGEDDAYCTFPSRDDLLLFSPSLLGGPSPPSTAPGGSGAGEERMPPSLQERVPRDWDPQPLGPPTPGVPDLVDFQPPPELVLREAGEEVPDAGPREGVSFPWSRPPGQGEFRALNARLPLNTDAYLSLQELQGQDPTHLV
UniProt P01589, sequence (P31785 23-369, chain 3 of 3, further chain): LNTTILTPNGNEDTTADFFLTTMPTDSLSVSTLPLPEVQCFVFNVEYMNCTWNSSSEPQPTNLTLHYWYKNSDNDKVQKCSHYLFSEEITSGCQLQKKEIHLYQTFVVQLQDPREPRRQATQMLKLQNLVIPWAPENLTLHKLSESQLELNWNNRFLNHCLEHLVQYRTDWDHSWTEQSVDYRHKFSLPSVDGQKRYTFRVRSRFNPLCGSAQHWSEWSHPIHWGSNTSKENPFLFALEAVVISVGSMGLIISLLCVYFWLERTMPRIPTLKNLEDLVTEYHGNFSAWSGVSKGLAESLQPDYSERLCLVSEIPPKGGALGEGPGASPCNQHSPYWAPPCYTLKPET

- M1, fresh lymphocytes analyzed by FACS, IL2-Bax 1 µg (Experiment No. 1): 17.5
- M1, fresh lymphocytes analyzed by FACS, IL2-Bax 5 µg (Experiment No. 1): 24.3
- M1, fresh lymphocytes analyzed by FACS, IL2-Bax 10 µg (Experiment No. 1): 42.1
- M1 - 2, fresh lymphocytes analyzed by FACS, IL2-Bax 1 µg (Experiment No. 1): 13.5
- M1 - 2, fresh lymphocytes analyzed by FACS, IL2-Bax 5 µg (Experiment No. 1): 20
- M1 - 2, fresh lymphocytes analyzed by FACS, IL2-Bax 10 µg (Experiment No. 1): 35
- M2, fresh lymphocytes analyzed by FACS, IL2-Bax 1 µg (Experiment No. 1): 4
- M2, fresh lymphocytes analyzed by FACS, IL2-Bax 5 µg (Experiment No. 1): 4.3
- M2, fresh lymphocytes analyzed by FACS, IL2-Bax 10 µg (Experiment No. 1): 9.1
- UL + UR, fresh lymphocytes analyzed by FACS, IL2-Bax 1 µg (Experiment No. 2): 10.5
- UL + UR, fresh lymphocytes analyzed by FACS, IL2-Bax 10 µg (Experiment No. 2): 31.6
- UL, fresh lymphocytes analyzed by FACS, IL2-Bax 1 µg (Experiment No. 2): 4.98
- UL, fresh lymphocytes analyzed by FACS, IL2-Bax 10 µg (Experiment No. 2): 14.7
- UR, fresh lymphocytes analyzed by FACS, IL2-Bax 1 µg (Experiment No. 2): 5.56
- UR, fresh lymphocytes analyzed by FACS, IL2-Bax 10 µg (Experiment No. 2): 16.8
- apoptotic cells in fresh human lymphocytes treated with IL2-Bax (FACS): 2 to 14%
- increase in the percentage of the apoptotic-cell population (sub-G1, FACS), HUT102 cells, highest concentration tested: 3.6 fold
Substance: IL2-Bax chimeric protein

— patent publication US20090317358A1
